Assay results published in the DeepSol protein solubility set.

Test: soluble on expression in E. coli; label from the status in PepcDB or PDB records

| Sequence | soluble on expression in E. coli |
| --- | --- |
| MGSDKIHHHHHHMGVDPFERNKILGRGINIGNALEAPNEGDWGVVIKDEFFDIIKEAGFSHVRIPIRWSTHAYAFPPYKIMDRFFKRVDEVINGALKRGLAVVINIHHYEELMNDPEEHKERFLALWKQIADRYKDYPETLFFEILNEPHGNLTPEKWNELLEEALKVIRSIDKKHTIIIGTAEWGGISALEKLSVPKWEKNSIVTIHYYNPFEFTHQGAEWVEGSEKWLGRKWGSPDDQKHLIEEFNFIEEWSKKNKRPIYIGEFGAYRKADLESRIKWTSFVVREMEKRRWSWAYWEFCSGFGVYDTLRKTWNKDLLEALIGGDSIE | not soluble |
| MLLMRRFAFLTSSVYFKYIPIYSQYHYSSQFPINMNPKKVAQLPVHNKSTLPPQEIIDLFKITFLEELYPKDQDNEKSPLTEQIQAVKSDLYNRDYNAAFNNDSKRIAYCCRWSPSRATSYASVFAHFPELLKIIRCEIDDKDSNVLCIGGGAGGELVALASIFTLSRDFSSKFASALKIDNEVNKKPRNLNIQLVDIADWSTVVEKLTATIKSKWLYGDSEAESFNVNFTHKDCLQMTEPQDIKIYQGLDLITLLFTTNELFTQKKVESIKFLQRLNENCAPGCHLLILESAGSYSHITINNKKFPIQFLIDTILVGNRKDKGTTGPWSLVSENDSIWYRMDPKLDYSIPLENMRFFYRLYVKN | not soluble |
| VDMSNVVKTYDLQDGSKVHVFKDGKMGMENKFGKSMNMPEGKVMETRDGTKIIMKGNEIFRLDEALRKGHSEGG | soluble |
| MKAVINNTNPENTPPTRAIKRLERDVLRMGALVEQSFRLSHQALFARDLTAAEELPRLDKKIDRFYRQIESDCTSIITLQAPTAQDLRCLSAFMQLVRDLERIGDYAKDLAEIAIKIFPYPPHASLPEIALMSNNAQAMLATSLLALADLDEINGRRLKYLDDDVDHAYNQLYHTLAHQKDVPGVIEPILLLTLAIRCLERMADHATNIGQRVAYIVTGQR | not soluble |
| MGSDKIHHHHHHMSGNESVVNYDHFIDKRRVRKAFERAAPLYDQAAVLQREVCDRMLSRLEYIKYMPDVVLDAGSGTGYGTCKLLERYPDASMLAIDIATGMHHQARQRMNSMIPRWRQLFGVGRNQRTSRVRYVAGDIEQLPLEDSCAGLVWSNLALQWCNDLKKTFDEMRRILKNGGLFMFSTFGPDTLKELRQAFRHADDYSHVNRFADMHDIGDMLVHSGFATPVMDMEYITLTYDEVISVMRDLKAIGAHNATGARHRGLTGKNAWQKAIGHYETLRTGGKLPATFEVVYGHAWKPAPRTSILTPETRRHIGLE | not soluble |
| MSLDEVSQKPHERLAAWLAEDMAAVNGLIRERMASKHAPRIPEVTAHLVEAGGKRLRPLLTLAAARLCGYEGPYHIHLAATVEFIHTATLLHDDVVDESHRRRGKPTANLLWDNKSSVLVGDYLFARSFQLMVETGSLRVMDILANASATISEGEVLQLTAAQDLRTTEDIYLQVVRGKTAALFAAATEVGGVVAGVPEAQVEALHAYGDALGIAFQIVDDLLDYGGVDAQIGKNTGDDFRERKLTLPVIKAVAQADAEERAFWQRVIEKGDQREGDLEQAHAIMSRHGAMEAARQDALRWVTVAREALGQLPEHPLREMLHDLADFVVERIAEGHHHHHH | soluble |
| AQRRAVAAAGGLARSCPAGQQALLAEGFARRLLRDVAATLHEGEYTSPLCEPLAYADPLAGLAAALAELMAWPGLLAVLQPVQAQPDAVAAAAGAGAPAAAGAGVGAGSGARQRLAQETADRARAEVLVLLQELVTWLDPCCDDSRGVAPQDAAAVSLAAFRSLVEHDPGAAAALDADTNIRWYLCNLTGDDAPPAAPPAECVAPQSDMLLDLARRLLAALPPLAAAAAPG | not soluble |
| MGSDKIHHHHHHMNFETVIGLEVHVELKTESKIFSASPNHFGAEPNANTSVIDLGYPGVLPVLNKAAVEFAMKAAMALNCEVATDTKFDRKNYFYPDNPKAYQISQFDKPIGENGWIEIEVDGTKKKIGITRLHLEEDAGKLTHSGNGYSLVDFNRQGTPLIEIVSEPDIRTPQEAYAYLEKLKSIIQYTGVSDCKMEEGSLRCDANISLRPVGQEEFGTKTELKNLNSFNFVRKGLEYEEKRQAQVLLSGGEILQETRRYDEAANKTVLMRVKEGSDDYRYFPEPDLVALHIDDEWKARIRSEIPELPDARKKRYVEELGLPAYDAMVLTLTKEMSDFFEETIAKGADPKLASNWLMGEVSGYLNAEQKELDEVALTPDGLAKMIQLIEKGTISSKIAKKVFKDLIEKGGDPEEIVKAKGLVQISDEGELRKYVVEVLDNNQQSIDDFKNGKDRAIGFLVGQIMKATKGKANPPMVNKLLLEEINKR | not soluble |
| MARAVHRSGLVALGIATALMASCAFAAKDVVVAVGSNFTTLDPYDANDTLSQAVAKSFYQGLFGLDKEMKLKNVLAESYTVSDDGITYTVKLREGIKFQDGTDFNAAAVKANLDRASDPANHLKRYNLYKNIAKTEAIDPTTVKITLKQPFSAFINILAHPATAMISPAALEKYGKEIGFYPVGTGPYELDTWNQTDFVKVKKFAGYWQPGLPKLDSITWRPVADNNTRAAMLQTGEAQFAFPIPYEQATLLEKNKNIELMASPSIMQRYISMNVTQKPFDNPKVREALNYAINRPALVKVAFAGYATPATGVVPPSIAYAQSYKPWPYDPVKARELLKEAGYPNGFSTTLWSSHNHSTAQKVLQFTQQQLAQVGIKAQVTAMDAGQRAAEVEGKGQKESGVRMFYTGWSASTGEADWALSPLFASQNWPPTLFNTAFYSNKQVDDFLAQALKTNDPAEKTRLYKAAQDIIWQESPWIPLVVEKLVSAHSKNLTGFWIMPDTGFSFEDADLQ | soluble |
| VVTCATDGNHGRSVAWGAQMFGCGCIIYIHRDVSEGRKVAMEAFDAEVIRITGNYDESVRQAGADAKAHGRIIVSDTSYEGYMEVPKDVALGYTVMLAETVEQLDGEIPTHVFVQGGVGGLASAVAGYFWDLWGDRRPRFVVVEPEQANCLQLSAKAGEPVVVKGDLDTLMAGLACGEVSLLAWQILSNGADDFMTLSEDAIADTMSLLAKGYKGDPAIEAGESAVPGLAAAINARAQDTFAKALNLDAQSKVLVIGTEGAT | not soluble |
| MKTIWTGAIGFGLVNIPVKLFSATHESRLDLDMLDKKDHSNIKFQRVNAKTGKEVAWDNIVKGYKIEDDYVILDEKDFEKANAKKTKTIEILQFVQEDEIDSVYFETPYYIQPDKSGTRAYALLREALIKSKKVAVANYVLRNKEALAILKPVGNVIVLNKIRFQEEILDADALDLPAKSAIKEGEMKMALSLIDQLTETFDISKYKDTYTSELLKLIKAKAKGTVVKTKSAASKPTATKDLMAQLKASLQPTKRAAAR | not soluble |
| AHHHHHHGSKKFPAYLASWEDIENWAKAGAWKVLESGWMPDVIVGLARGGWIAARLYCDYLGVKDLVSIKVEHWGVTATPDGRARLKYGAQYDFEGKKVLIVDDITDTGESMSLAYEYMKSRNPAEIRTATLLNIKGSKFVPDYYAKDIDWVWVVFPWNFVEDMINLTNNLFEEKDKLTTDEIISLFKELHGIEVPREKLEEALRMAEKRKIFKFENGFWTKV | soluble |
| MGSDKIHHHHHHMLDKKTDILLAARKLFSEKDFTSVSMQAIAEECKMSKASIYKLFQSKEDLLLELLSFNQKQMVAAASRLQENTALTPEERLTQKVKMELEGFRRNQQFFNMLTYGNPRLHNDRVKQHIHQTRSTIICWHRDSLIQAYGETILPFVWDLVIILHGMMREFLMLIKIEEKPLELDPIAEFIISTLNQIIKNRETRQSLLPPEAIELYIHSASSYKPKDKSVLLSESLKELHKGISSLSAADYDVDELTSAAAMLEEEAKKEEPRAFLLKSLIGYLEQTGVLTQPVSMLKTLLIT | not soluble |
| MNSILSLIGRDTELFHQDINANEKELQSVVSQSRFLVLGGAGSIGQAVTKEIFKRNPQKLHVVDISENNMVELVRDIRSSFGYINGDFQTFALDIGSIEYDAFIKADGQYDYVLNLSALKHVRSEKDPFTLMRMIDVNVFNTDKTIQQSIDAGAKKYFCVSTDKAANPVNMMGASKRIMEMFLMRKSEEIAISTARFANVAFSDGSLLHGFNQRIQKNQPIVAPNDIKRYFVTPQESGELCLMSCIFGENRDIFFPKLSEALHLISFADIAVKYLKQLGYEPHLCESEDEARELAKTLPAQGKWPCLFTSSDTTGEKDFEEFFTDKETLDMARFDNLGIIKNDSLYQQELLELFEQKIGQMKTDRQWTKEEIVQLFFIMIPDFGHKETGKYLDSKM | soluble |
| MRLILLALLALVFPAVAQEDMPAKVWLEKMSQALKEKEFKASIIQLQADHIRPLVYLHGKVNNQEVAFLEYLNGPPKNAVRVGNRVTFIEHDQPAYSILSNHIQGVWPAAFSSQMSDLEVGYQFVMGGRTRIAGRPGQMIRLLPNDEYRYGFQIWLDMDTYLPLRYDMLTQDKQLLEQLMVIELIEFSEPPSILQEAYKQEWPAVIDQAERQDGQNWQFSWLPAGFSVVVRDHHRLIGSHEAVEYIALTDGLANISIYVARAGSTPLPEELITRNGLSLVAEKVGNAEVVAVGKVPTETLARIAKSLMLK | not soluble |
| MGSDKIHHHHHHMSFPTIPDITPTISINRSDVINLLLASIAFEELGLAHIINAEAEKIQYILGTLSEQVPTEPPTQDDLIEINKSVNQTLRTVIKNQMLLQFKLEDLIVENPLPSITIKKYVSGDGGVTWYDADSPPGPTIDPEQVPMFRFVITNTGNVILTGVTVTDSVLGLISTGGILPPGAFFEEYRSGEYLGGDQSNTATVIGYYLDQQVEDSDVAYYTEPT | not soluble |
| MGSDKIHHHHHHMKLETIDYRAADSAKRFVESLRETGFGVLSNHPIDKELVERIYTEWQAFFNSEAKNEFMFNRETHDGFFPASISETAKGHTVKDIKEYYHVYPWGRIPDSLRANILAYYEKANTLASELLEWIETYSPDEIKAKFSIPLPEMIANSHKTLLRILHYPPMTGDEEMGAIRAAAHEDINLITVLPTANEPGLQVKAKDGSWLDVPSDFGNIIINIGDMLQEASDGYFPSTSHRVINPEGTDKTKSRISLPLFLHPHPSVVLSERYTADSYLMERLRELGVL | not soluble |
| GPGSMVTTDINRDPVKRAMEDGTWRPGQKTAPQQQPQSLGVQCVAAPPQQAPCVPPLLVQYVPAPQAQYTPQPQLMQYVPQQPPQGYYQPRPPLPQPSYYPPGPPPPLQSGYYQQPPVPIQQVYYTQPPSQCYAPQPQYQY | not soluble |
| GMALTPDQMPDRAEVVFTCNGKAVGKMRNELDVAMVKPFEERFALATDEGAFHGGDASAPPPLALFIAGLTGCVMTQIRAFAKRLKVTVTDLDVECRVVWDWAKAGPVYETGPKSFEIDIILHSPDPIEAQQALIEAAKKGCFLEQTLGQANTIRHRLKVGDTFIDA | soluble |
| MGSDKIHHHHHHMSLDRVDWPHATFSTPVKRIFDTQTTLDFQSSLAIHRIKYHLHKYTTLISHCSDPDPHATASSIAMVNGLMGVLDKLAHLIDETPPLPGPRRYGNLACREWHHKLDERLPQWLQEMLPSEYHEVVPELQYYLGNSFGSSTRLDYGTGHELSFMATVAALDMLGMFPHMRGADVFLLFNKYYTIMRRLILTYTLEPAGSHGVWGLDDHFHLVYILGSSQWQLLDAQAPLQPREILDKSLVREYKDTNFYCQGINFINEVKMGPFEEHSPILYDIAVTVPRWSKVCKGLLKMYSVEVLKKFPVVQHFWFGTGFFPWVNIQNGTDLPVFEEKEEESIEQANAGSPGREQTSTRFPTSTSMPPPGVPPSGNNINYLLSHQNQSHRNQTSFSRDRLRR | not soluble |
